For the assay, the target named is human PDL1 protein (plate-coated) (human, UniProt Q9NZQ7 19-238, limits assumed). The assay can be described thus: titration ELISA, soluble monomeric decoy on plates coated with human PDL1 protein, anti-His tag detection. The procedure:
FIGS. 9A, 9B, 9C, and 9D are a set of diagrams showing characterization of PD-1 decoy variants and hCD8+ T cells transduced with the PD-1 decoy variants and tEGFR. […] Bound PD1 decoy molecules were detected with an anti-His tag antibody. […] The engineered T cells were co-cultured at a 1:1 ratio with different PD-L1⁺ target tumor cells (100,000 of each cell type) for 48 hours. NA8 and HLA/A2+NY-ESO-1−, SAOS2, and A375 are HLA/A2+ NY-ESO-1+. The supernatants were collected after 48 hours, diluted 1 in 25, and evaluated for the presence of IFNγ using a commercial ELISA kit from Thermo). […] CD8 T cells engineered with PD1 decoy_tEGFR retrovirus were labeled with chromium. The engineered T cells were co-cultured with anti-EGFR Ab and co-cultured with different ratios of PBMCs from the same donor. The negative control is NT (non-transduced) T cells Killing evaluated at 4 hours. As positive control, T cells were treated with HCl.

Chain of human PDL1 protein (plate-coated) (Q9NZQ7 19-238 limits assumed): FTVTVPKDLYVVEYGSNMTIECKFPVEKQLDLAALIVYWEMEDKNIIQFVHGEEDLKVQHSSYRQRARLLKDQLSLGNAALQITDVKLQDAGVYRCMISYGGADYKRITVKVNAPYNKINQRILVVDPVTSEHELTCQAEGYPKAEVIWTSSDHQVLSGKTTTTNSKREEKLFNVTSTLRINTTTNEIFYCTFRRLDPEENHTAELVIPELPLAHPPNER

B1: PD1_4XMUT_M70 (with 6xHis), soluble monomeric PD1 decoy variant (bacterial production) (receptor)
chain: MASDSPDRPWNPPTFSPALLVVTEGDNATFTCSFSNTSESFVLNWYRMSPSNQDDRLAAFPEDRSQPGQDARFRVTQLPNGRDFHMSVVRARRNDSGTYFCGAISLAPKAKIKESLRAELRVTERRALEHHHHHH
Consider B1, for which the “fold better binding than the WT PD1 decoy” value turned out to be 10 fold.

B2: PD1_6XDM (with 6xHis), soluble monomeric PD1 decoy variant (bacterial production) (receptor)
chain: MASDSPDRPWNPPTFSPALLVVTEGDNATFTCSFSNTSESFVLNWYRMSPSNQVDRLAAFPEDRSQPGQDARFRVTQLPNGRDFHMSVVRARRNDSGTYFCGAISLAPKWKIKESLRAELRVTERRALEHHHHHH
notes: also called 6×DM; variant 6×DM
For B2, the “fold better binding than the WT PD1 decoy” value is approximately 7.5 fold.

The values are drawn from patent publication US20240207319A1 (LUDWIG INSTITUTE FOR CANCER RESEARCH, published 2024).
